Source: patent publication US7119182 (University of California, dated 2006)
Square brackets hold non-standard residues; d marks the D form. Ends that are not written are not given here. Cha = N[C@@H](CC1CCCCC1)C(=O)O; Mpa = O=C(O)CCS

Target: T1, human thrombin receptor (human, UniProt P25116 42-425)
T1 chain: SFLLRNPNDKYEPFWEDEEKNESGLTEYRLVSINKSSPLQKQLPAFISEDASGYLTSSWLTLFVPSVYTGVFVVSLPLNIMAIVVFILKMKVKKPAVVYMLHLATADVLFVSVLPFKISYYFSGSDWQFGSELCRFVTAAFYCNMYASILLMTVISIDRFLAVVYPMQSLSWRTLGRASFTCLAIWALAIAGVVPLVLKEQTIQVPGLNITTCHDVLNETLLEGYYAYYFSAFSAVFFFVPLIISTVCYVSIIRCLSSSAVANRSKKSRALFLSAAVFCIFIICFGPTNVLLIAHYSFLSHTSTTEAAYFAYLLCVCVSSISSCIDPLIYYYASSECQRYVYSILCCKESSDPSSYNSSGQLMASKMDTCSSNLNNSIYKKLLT
Experiment: cell-based or functional assay

Binder | IC50 (50% inhibition of thrombin-induced platelet activation or aggregation) [µM]
[Mpa]F[Cha][Cha]RNPNDK-NH2 (SMILES N=C(N)NCCC[C@H](NC(=O)[C@H](CC1CCCCC1)NC(=O)[C@H](CC1CCCCC1)NC(=O)[C@H](Cc1ccccc1)NC(=O)CCS)C(=O)N[C@@H](CC(N)=O)C(=O)N1CCC[C@H]1C(=O)N[C@@H](CC(N)=O)C(=O)N[C@@H](CC(=O)O)C(=O)N[C@@H](CCCCN)C(N)=O) [Mpr-F(Cha) (Cha)RNPNDK-NH2] | 25
[Mpa]F[Cha][Cha]RN-NH2 (SMILES N=C(N)NCCC[C@H](NC(=O)[C@H](CC1CCCCC1)NC(=O)[C@H](CC1CCCCC1)NC(=O)[C@H](Cc1ccccc1)NC(=O)CCS)C(=O)N[C@@H](CC(N)=O)C(N)=O) [Mpr-F(Cha) (Cha)RN-NH2] | 100
[Mpa]F[Cha][Cha]RNPNAK-NH2 (SMILES C[C@H](NC(=O)[C@H](CC(N)=O)NC(=O)[C@@H]1CCCN1C(=O)[C@H](CC(N)=O)NC(=O)[C@H](CCCNC(=N)N)NC(=O)[C@H](CC1CCCCC1)NC(=O)[C@H](CC1CCCCC1)NC(=O)[C@H](Cc1ccccc1)NC(=O)CCS)C(=O)N[C@@H](CCCCN)C(N)=O) [Mpr-F(Cha) (Cha)RNPNAK-NH2] | > 100
[Mpa]F[Cha][Cha]RNPNDKY [Mpr-F(Cha) (Cha)RNPNDKY] | 40
[Mpa]F[Cha][Cha]RNPND-NH2 (SMILES N=C(N)NCCC[C@H](NC(=O)[C@H](CC1CCCCC1)NC(=O)[C@H](CC1CCCCC1)NC(=O)[C@H](Cc1ccccc1)NC(=O)CCS)C(=O)N[C@@H](CC(N)=O)C(=O)N1CCC[C@H]1C(=O)N[C@@H](CC(N)=O)C(=O)N[C@@H](CC(=O)O)C(N)=O) [Mpr-F(Cha) (Cha)RNPND-NH2] | 50
[Mpa]FLLRNPNC-NH2 (cysteine pairing not given here) [Mpr-FLLRNPNC-NH2] | 400
[Mpa]F[Cha][Cha]RNPNDKYE-NH2 (SMILES N=C(N)NCCC[C@H](NC(=O)[C@H](CC1CCCCC1)NC(=O)[C@H](CC1CCCCC1)NC(=O)[C@H](Cc1ccccc1)NC(=O)CCS)C(=O)N[C@@H](CC(N)=O)C(=O)N1CCC[C@H]1C(=O)N[C@@H](CC(N)=O)C(=O)N[C@@H](CC(=O)O)C(=O)N[C@@H](CCCCN)C(=O)N[C@@H](Cc1ccc(O)cc1)C(=O)N[C@@H](CCC(=O)O)C(N)=O) [Mpr-F(Cha) (Cha)RNPNDKYE-NH2] | 80
[Mpa]F[Cha][Cha]RAPNDK-NH2 (SMILES C[C@H](NC(=O)[C@H](CCCNC(=N)N)NC(=O)[C@H](CC1CCCCC1)NC(=O)[C@H](CC1CCCCC1)NC(=O)[C@H](Cc1ccccc1)NC(=O)CCS)C(=O)N1CCC[C@H]1C(=O)N[C@@H](CC(N)=O)C(=O)N[C@@H](CC(=O)O)C(=O)N[C@@H](CCCCN)C(N)=O) [Mpr-F(Cha) (Cha)RAPNDK-NH2] | 40
[Mpa]F[Cha][Cha]RNPNDK-OH (SMILES N=C(N)NCCC[C@H](NC(=O)[C@H](CC1CCCCC1)NC(=O)[C@H](CC1CCCCC1)NC(=O)[C@H](Cc1ccccc1)NC(=O)CCS)C(=O)N[C@@H](CC(N)=O)C(=O)N1CCC[C@H]1C(=O)N[C@@H](CC(N)=O)C(=O)N[C@@H](CC(=O)O)C(=O)N[C@@H](CCCCN)C(=O)O) [Mpr-F(Cha) (Cha)RNPNDK] | 30
[Mpa]F[Cha][Cha]RFPNDK-NH2 (SMILES N=C(N)NCCC[C@H](NC(=O)[C@H](CC1CCCCC1)NC(=O)[C@H](CC1CCCCC1)NC(=O)[C@H](Cc1ccccc1)NC(=O)CCS)C(=O)N[C@@H](Cc1ccccc1)C(=O)N1CCC[C@H]1C(=O)N[C@@H](CC(N)=O)C(=O)N[C@@H](CC(=O)O)C(=O)N[C@@H](CCCCN)C(N)=O) [Mpr-F(Cha) (Cha)RFPNDK-NH2] | > 100
[Mpa]F[Cha][Cha]RNPADK-NH2 (SMILES C[C@H](NC(=O)[C@@H]1CCCN1C(=O)[C@H](CC(N)=O)NC(=O)[C@H](CCCNC(=N)N)NC(=O)[C@H](CC1CCCCC1)NC(=O)[C@H](CC1CCCCC1)NC(=O)[C@H](Cc1ccccc1)NC(=O)CCS)C(=O)N[C@@H](CC(=O)O)C(=O)N[C@@H](CCCCN)C(N)=O) [Mpr-F(Cha) (Cha)RNPADK-NH2] | 75
[Mpa]F[Cha][Cha]RGPNDK-NH2 (SMILES N=C(N)NCCC[C@H](NC(=O)[C@H](CC1CCCCC1)NC(=O)[C@H](CC1CCCCC1)NC(=O)[C@H](Cc1ccccc1)NC(=O)CCS)C(=O)NCC(=O)N1CCC[C@H]1C(=O)N[C@@H](CC(N)=O)C(=O)N[C@@H](CC(=O)O)C(=O)N[C@@H](CCCCN)C(N)=O) [Mpr-F(Cha) (Cha)RGPNDK-NH2] | 20
[Mpa]F[Cha][Cha]RNPNDKY-NH2 (SMILES N=C(N)NCCC[C@H](NC(=O)[C@H](CC1CCCCC1)NC(=O)[C@H](CC1CCCCC1)NC(=O)[C@H](Cc1ccccc1)NC(=O)CCS)C(=O)N[C@@H](CC(N)=O)C(=O)N1CCC[C@H]1C(=O)N[C@@H](CC(N)=O)C(=O)N[C@@H](CC(=O)O)C(=O)N[C@@H](CCCCN)C(=O)N[C@@H](Cc1ccc(O)cc1)C(N)=O) [Mpr-F(Cha) (Cha)RNPNDKY-NH2] | 75
[Mpa]F[Cha][Cha]RNPNDA-NH2 (SMILES C[C@H](NC(=O)[C@H](CC(=O)O)NC(=O)[C@H](CC(N)=O)NC(=O)[C@@H]1CCCN1C(=O)[C@H](CC(N)=O)NC(=O)[C@H](CCCNC(=N)N)NC(=O)[C@H](CC1CCCCC1)NC(=O)[C@H](CC1CCCCC1)NC(=O)[C@H](Cc1ccccc1)NC(=O)CCS)C(N)=O) [Mpr-F(Cha) (Cha)RNPNDA-NH2] | 50
[Mpa]F[Cha][Cha]RKPNEK-NH2 [Mpr-P(Cha) (Cha)RKPNEK-NH2] | 10
[Mpa]F[Cha][Cha]RKPNDK-NH2 [Mpr-F(Cha) (Cha)RKPNDK-NH2] | 5
[Mpa]F[Cha][Cha]RNANDK-NH2 (SMILES C[C@H](NC(=O)[C@H](CC(N)=O)NC(=O)[C@H](CCCNC(=N)N)NC(=O)[C@H](CC1CCCCC1)NC(=O)[C@H](CC1CCCCC1)NC(=O)[C@H](Cc1ccccc1)NC(=O)CCS)C(=O)N[C@@H](CC(N)=O)C(=O)N[C@@H](CC(=O)O)C(=O)N[C@@H](CCCCN)C(N)=O) [Mpr-F(Cha) (Cha)RNANDK-NH2] | 75

Target: T1, human thrombin receptor
Experiment: cell-based or functional assay
Remark: another data set of the same source

Binder | EC50 (concentration required to elicit a 50% maximal aggregation), platelet aggregation [µM]
SFF[Cha]RA-NH2 (N-terminus assumed; SMILES C[C@H](NC(=O)[C@H](CCCNC(=N)N)NC(=O)[C@H](CC1CCCCC1)NC(=O)[C@H](Cc1ccccc1)NC(=O)[C@H](Cc1ccccc1)NC(=O)[C@@H](N)CO)C(N)=O) [SFF(Cha)RA-NH2] | 1.4
SF[Cha][Cha]RN-NH2 (N-terminus assumed; SMILES N=C(N)NCCC[C@H](NC(=O)[C@H](CC1CCCCC1)NC(=O)[C@H](CC1CCCCC1)NC(=O)[C@H](Cc1ccccc1)NC(=O)[C@@H](N)CO)C(=O)N[C@@H](CC(N)=O)C(N)=O) [SF(Cha) (Cha)RN-NH2] | 1.1
SFLLKN-NH2 [SFLLKN-NH2] | 11.1
SF[Cha][Cha]LRNPNDK [SF(Cha) (Cha)LRNPNDK] | 5.4
SFLLLN-NH2 [SFLLLN-NH2] | 44.9
SFLLQN-NH2 [SFLLQN-NH2] | 20.2
SFLLX (D-Arg at position 5; C-terminal amide (NH2)) [SFLL(D-Arg)-NH2] | 594
SFLLA-NH2 [SFLLA-NH2] | 137
SF[Cha][Cha]RK-NH2 (N-terminus assumed; SMILES N=C(N)NCCC[C@H](NC(=O)[C@H](CC1CCCCC1)NC(=O)[C@H](CC1CCCCC1)NC(=O)[C@H](Cc1ccccc1)NC(=O)[C@@H](N)CO)C(=O)N[C@@H](CCCCN)C(N)=O) [SF(Cha) (Cha)RK-NH2] | 0.82
